In article doi:10.1101/2024.06.26.600905 (bioRxiv, 2024):
Where no end group is shown, it is not given here. [ ]: non-standard residue; d: D form. pY = N[C@@H](Cc1ccc(OP(=O)(O)O)cc1)C(=O)O; TOTD membrane = not defined here; pS = N[C@@H](COP(=O)(O)O)C(=O)O

target: His6-SPAK CCT (mouse SPAK 459-556) (mouse) (UniProt Q9Z1W9); test: fluorescence polarisation

His6-OSR1 CCT (human OSR1 433-527) (from UniProt O95747 433-527) (domain or fragment), sequence (O95747 433-527): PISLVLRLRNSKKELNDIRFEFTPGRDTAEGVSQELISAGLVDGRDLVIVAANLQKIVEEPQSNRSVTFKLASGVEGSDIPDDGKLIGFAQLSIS

Molecule | fold decrease in affinity relative to wild type [fold] | Ki [µM]
SAGRRFIV[pS]PVPE [hWNK1 1253-1265 peptide phosphorylated on serine at the +3 position] | 2.5 | 
H-SAGRRFIVSPVPE-OH [hWNK1 1253-1265 wild type peptide NH3+-…-COO-] |  | 2.5

target: His6-SPAK CCT (mouse SPAK 459-556) (mouse) (UniProt Q9Z1W9); test: fluorescence polarisation; remark: another data set of the same source

Molecule | Ki [µM] | fold decrease in affinity relative to wild type [fold]
hWNK4 1012-1024 wild type peptide … | 7.2 | 
hWNK1 1253-1265 R1257A peptide … |  | 3.1
SAGHHFIVSPVPE [hWNK1 1253-1265 peptide, arginines replaced with histidine-histidine] |  | 7
SAGARFIVSPVPE [hWNK1 1253-1265 peptide, first arginine of RRF to alanine] |  | 1.5
SAGHAFIVSPVPE [hWNK1 1253-1265 peptide, arginines replaced with histidine-alanine] |  | 11
SAGKKFIVSPVPE [hWNK1 1253-1265 peptide, arginines replaced with lysine-lysine] | 4.2 | 

target: NH3+-NLVGRF-[DAP-FAM]-VSPVPE-COO- fluorescent probe peptide (human); test: fluorescence polarisation

Molecule | Kd [µM] | fold decrease in affinity relative to wild type [fold]
His6-SPAK CCT (mouse SPAK 459-556) (from UniProt Q9Z1W9 459-556) (domain or fragment) | 0.67 | 
purified SPAK CCT domain D477Q (domain or fragment) |  | 50
His6-OSR1 CCT (human OSR1 433-527) (from UniProt O95747 433-527) (domain or fragment) | 1.5 | 

target: T1, His6-OSR1 CCT (human OSR1 433-527) (human, UniProt O95747 433-527); test: fluorescence polarisation
T1 sequence (O95747 433-527): as above

Molecule | fold decrease in affinity relative to wild type [fold] | Ki [µM] | binding result
SAGRRFIV[pS]PVPE [hWNK1 1253-1265 peptide phosphorylated on serine at the +3 position] | ~2.5 |  | 
H-SAGRRFIVSPVPE-OH [hWNK1 1253-1265 wild type peptide NH3+-SAGRRFIVSPVPE-COO-] |  | 5.1 | 
SAGHHFIVSPVPE [hWNK1 1253-1265 peptide, arginines replaced with histidine-histidine] | ~7 |  | 
SAGARFIVSPVPE [hWNK1 1253-1265 peptide, first arginine of RRF to alanine] | ~1.5 |  | 
SAGHAFIVSPVPE [hWNK1 1253-1265 peptide, arginines replaced with histidine-alanine] | 11 |  | 
SAAARFIVSPVPE [hWNK1 1253-1265 peptide, -3 glycine and -2 arginine to alanine-alanine] |  |  | binds
SAGAKFIVSPVPE [hWNK1 1253-1265 peptide, arginines replaced with alanine-lysine] |  |  | binds
SAVARFIVSPVPE [hWNK1 1253-1265 peptide, -3 glycine and -2 arginine to valine-alanine] |  |  | binds
SAGRAFIVSPVPE [hWNK1 1253-1265 R1257A peptide SAGRAFIVSPVPE] | ~3.1 |  | 
SAGKKFIVSPVPE [hWNK1 1253-1265 peptide, arginines replaced with lysine-lysine] |  | 16.3 | 
SAGAHFIVSPVPE [hWNK1 1253-1265 peptide, arginines replaced with alanine-histidine] |  |  | binds
SAGKAFIVSPVPE [hWNK1 1253-1265 peptide, arginines replaced with lysine-alanine] |  |  | binds
SAGRRFIVSAAPE [hWNK1 1253-1265 peptide, proline and valine to alanines at +4/+5] |  |  | binds
LRRRNFKVMIYQD [Cavin1 146-158 motif peptide] |  |  | binds
LRRRNFKVMI[pY]QD [p-Tyr156 Cavin1 peptide (Cavin1 146-158)] |  |  | binds
QLVGRFQVTSSKE [hWNK4 1012-1024 wild type peptide QLVGRFQVTSSKE] |  | 12.9 | 
QLVGRFQITSSKE [hWNK4 1012-1024 peptide, valine to isoleucine at the +2 position] |  |  | binds
QLVSRFQVTSSKE [hWNK4 1012-1024 peptide, glycine to serine at the -2 position] |  |  | binds
QLVGRFQVASSKE [hWNK4 1012-1024 peptide, threonine to alanine at the +3 position] |  |  | binds
QLVGRFQLTSSKE [hWNK4 1012-1024 peptide, valine to leucine at the +2 position] |  |  | binds
QLVGRFAVTSSKE [hWNK4 1012-1024 peptide, glutamine to alanine at the +1 position] |  |  | binds

target: T1, His6-OSR1 CCT (human OSR1 433-527); test: peptide or protein array

Molecule | binding result
Ac-QLVGRFQVTSSKE-{TOTD membrane} (reading uncertain) [hWNK4 1012-1024 wild type peptide QLVGRFQVTSSKE on the peptide array membrane] | binds
